# Assay: label from the status in PepcDB records
# 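Note: failed if final PepcDB status was selected cloned or expressed and not failed if soluble or beyond.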
row,Sequence,protein production
1,MGSLYTSELSRAVSESVAAALQRSFQGELRSASALGSGWSTSAELLNRNDSTERYFVKLSEPQAVSMFSAEFEGIQAMAESETVRVPAPICYGNTAERSFIVLEYLELGGIGNEAVYRDFGEKLAAMHRCSSGGRGYGWHRGNTIGSTPQLNTWMHSWADFFVENRLRYQLKLARSRQGGRLRNEDALLQRVHSVLQEHEIQHQVTPSLVHGDLWTGNVATLRNQNEVVIFDPATYYGDREVDLAMTELFGRLPRAFYQAYDASWPLPKGYREKRRVIYNLYHILNHGALFGGGYYDQAQSMIETILR,not failed
2,MAMSGTYVTDVPLKGSAEKHYKRWRSENHLVPEAIGHLIQGVTVHDGDWDSHGTIKIWNYTRDGKEEVLKERIEMDDENMAVTINGLDGHVMEVLKVYVTTLHFIPESKDGCVCKITMVWEKRTEDSPEPIEFMKFVEQMIAHMDDHILQNQE,failed
3,MAEPGGHEGPASTQRAKVCETHTAMVFFVEDRVYKRKKPVDLGFLDYTTRSSRRAVCEREIELNRRFAPDVYLGLGELRTPGEQEAEPLVVMRRMPDDRRLSHLVRTGAPVADDLRAVARHLAAWHSAAPRGPAIAEQGTRDALAARWEASFTQVDVLAAKGPTRDEAGEVERLVRRYLAGRKPLFGLRIEQGRVLDGHGDLLADDVFCLGDGPRILDCLEFDDALRYVDGLDDAAFLAMDLESLGAPESAAFFLAQYGEYSGDPAPPSLWHHYVAYRAFVRAKVSLIQARQGAPGAHATARRLVRMALRHLRASAVGLTLVAGLPGTGKSTLSGALADRLGAVLLSSDRLRKEMAGLSPQQTASADYGEGLYTPEWTARTYAELLDRAAALLALGESVVLDATWIDSAQREAARHTAESAGADLVALHCHVPDDVTAARLSTRAPGASDADLGVAEAMAAEEQPWSGAVGVDTGGSLEAAVGQALAAVRPWGSDQAKVFRRPYMEPDLEHHHHHH,failed
4,MTDGEAVSAAAGPGAEGPPGPVGHWAPGSHILWRYRENGGPHVHIARPVTVVRDDADLLAVWLAPGTECVKPVLADGTPVHLEPLATRYTKPRTVQRDQWFGTGVLKLARPGEAWSVWLFWDPGWRFKNWYVNLERPLTRWEGGVDSEDHFLDISVHPDRTWHWRDEDEFAQALRDGLMDPASAGRVRRAGRSAVAEIRAWGSPFADGWEHWRPDPAWPVPSLPGDWDRTPAHVSS,not failed
5,MNHKQYLALAVPLIISTITTPLLGAVDTAVAGQLSSPAYIGGVAVGTMIFNTMYWLLGFLRVSTSGFAAQSLGSQNRSESVLALARPVFIALFAGLMFIILQKPLEYAALTLIQPDRHTAEFASQYFSLRIWGAPFALISYCILGWLMGMSLIKVTLLLQISMNVLNIVLDIVFVYVFHMEVYGIALATLISDVTGCLIGCWLVKTNAAMPFKLPSVKLLFDPKPFKKMMVVNRDLLIRTLCLLTVFNLFTAKGAGFGAEILAANAILIQIHYLMAYVFDGFANASSIFAGKAVGRMDRDLYSRTLSLSIQWSLISAALLSVGYFLLRNAILPLFTPLESVLEAAKTYDVWIALFPLAASFGLVFYGIFTGATEIGPVRNSMFLAVLVFLAAFFTAVPAFGNHGLWLAFLLFSLGRSVFLCMAVPGLTTRLFGERSAAREAGQRPKSLKHPG,failed
6,MTGEGTNYLIVGSDSRAGMSAEEKKKLHTGSAEGKRTDSMMILHTGDNGSTLVSLPRDSDVEIPTFKGSTSGKTYPGTGRHVKLNAAYAEDGPELLVRTIEYNTGLHIDHYVEIGFAGFANIVDSVGGVEMTLDKGFKDTFSGADFKAGKQTLNGEQALAFVRTRHAFAASDLERTKNQQKFLSALAHQVATPSTVLNPFKLYPTLSSGLDTLIVDKDMGLFDLADMFWAMKGVTGGDGTSMNMPISGSSGGNLVWDKAKVKALVNELKNDEKVTVSGNLEHHHHHH,not failed
7,MNNTPVEPVRLTPDNPLVSVVIRTKDRPKRLAEAVRSVREQTHRPLEVIVVNDGGWPLPEEALKEQAGDVELILIQLEQNQGRSIAANTGLQAATGRYLCFLDDDDRFLPDHIELLSSCLEHIEHRVCYSDAELCWQVYNVETGEFDIVNRQVFGSRDFNLAELLCGNYIPLNTLLFDRQVLLQVGGFDPQFDIYEDWDLLLRVGSLYPFYHLPRVTAQYNQWSKDHQNFYNHFSQTGQAPLLHITGYDRLIEKNRHLFSADAARHLLSVINRLRAIEAELAQRDAVPAESPLTRLTAQLEQTLATIGPSFATLEGRLADLDACQRDALVSATSKLNEGVSDLDGLRSQVAHLCMEFENASGKIDTSQAELQKTATLLVQTQNLLEDYRKEIARTTELNRLISERDSELRTLRQTIARNEAEITALHKERNEANATISALDEKVAHAETEKASLHQIIAQTEARLASVYGSTSWRIAAPLRAVSVAVRWLLRNTRRAFLLMWWLCTGQYARATNHAFPHLWRHVPPRLKMIIPPRLAGSVKRRLHLADITAPRPLENQPDNSHPDTTAEAHVTLDVPERHYVDLSSEPVAHTPIKAIAFYLPQFHTIPENDKWWGEGFTEWTNTRKGKPLFDGHHQPRVPLHLGYYNLENIEVYAQQVQLARKAGLYGFCFYFYWFGGKTLLEKPLLNMLANPQIDQPFCLCWANENWTRRWDGLDDDILIAQHHSEEDAIAFLRYINTYFRDDRYIKIDGKPLLLVYRPSIIPDITHIQEVWRKHATELGWPGIYLVSAQTFGQKDPRDFHFDAAVQFPPQHAAPCAAFHSETPNLADDFEGCVFDYHNVATQFCDSPEVDYKLFRSVTLAWDNSARRGKRATILRNFSLTSYAQWLLTACKATLADHNLTENERLVFINCMERMGRGHLSGAGHQIWLWIPGSHKKGAECILGWKTQAIRNRSKL,failed
8,RLEDLGAASAARLLDAAEERLGRPCGRMERYGRVEREVVAAAEGAELLIVARDGDRARLGPHSLGPASRFVVDHAPCPVLLVWPAPAPGLGTIPPPPHP,not failed
9,MLRLVKKSVIGLVDWFLYKALKTSQKQFLSSLLTEKQKQAIKRVIKPGKKQTQLRKIERLKYRLYNLGFTNRALEDLQLICRESGEPYLKRLAAWELALWHANQYTTEDAKACLRYLDIATTGVKDRDDLRAVAIVKAECYDLLGEREQGKELVQQMIETQPHPDLYLAAANLETTVAQRMKWINKVFAHYGTEPLELTEQADEKSPYDALGVNGIDESSENDEQPKVTVIIPAFNAESVIQTSIESMQKQTWTNLEIFVVDDCSTDETASIVHQYAEQDHRVHYLKTETNSGAYVARNIALQHATGDFVTINDADDWSHSRKIEIQVRHLLKHPNIIGNFSQQVRATNDLKFYRRGKPGLYIFANMSSFMFRRKPAMDKLGYWDCVRFAGDSEFVKRIKLAFGEKAVVELPTAPLSFQRQSGESLTSHSAFGFPGYFMGARREYAEAHDHFHRTSQEGLRYSFPQKERPFPVPEPMLPNRQPKSAGRRHFDVILASEFRLLGGTNMSNVEEIKAQREMGLRTGLIQLSRYDLNSVEAINPNVRELIDGDQVQMIVYGEQVSCDVLIVRHPPILQEWQRYVPNVEAKSVHVIVNQPPQRDYGDNGSVLYELPRCIDHLQAYFGKKGIWYPIGPNVREALYEHHHKDLQAIPFSDQDWVNIINVKEWKRVTRREKDGKIKIGRHSRDQYVKWPKDRATMLQIYPDKEPFEVHILGGAKSPTKVLGSLPANWHVREFGEVHPREFLAELDVFVYFTHPDWVEAFGRVVFEAMAAGVPVIVPHEYEKLFGEAAIYAEITEVQEKVMKLMADDKYYQSQVEKALIYVENQFGYSQHAARLETFLHEDERAEV,failed
10,IEIDSGSGFCFGVVNAIRHAEKQLEKSSDKLYCLGDIVHNTLEVERLGKKGLETIDYDAFSRLRGAKVLLRAHGEPPEIYRMAGENGVTIIDATCPVVLRLQNKIKSRYEATRSLGAQVVIYGKRGHAEVNGLVGQTEGTAIVIESEEELDKIDYTRPVILFSQTTKSLEGFGQIIDSISTRMQPGVTFEHHDTICRQVANRIPHIGAFATAHELVFFVAGEKSSNGKVLFGHCLAANPRSIFISSPEVIVPDMLVPLPASIGICGATSTPRWQMEEVASHIKAL,failed

# Reference: a protein production outcome set (Wang et al. 2014)
